Test [1] has as its system DNA sequence flanked by two loxP sites (loxP-stop-loxP Fluc reporter) in HEK293 cells. The test can be described thus: luciferase assay of Cre-loxP DNA recombination in HEK293 cells. Format: cell-based, human. Particulars: for background DNA recombination activity (leakage) in the absence of TMP: luciferase reporter; for TMP-dependent DNA recombination activity (induction): TMP 10 nM or 500 nM vs DMSO. An excerpt: For constructing a luciferase reporter for detecting Cre-loxP recombinase activity, the polyadenylation signal (poly(A)) repeated sequence (“stop”)) flanked by two loxP sites ([…]: SEQ ID No: 36) in the same orientation was amplified from Addgene plasmid (ID: 22797). Sequence encoding firefly luciferase (Fluc) was amplified from pGL4.31 vector (Promega). The loxP stop-loxP-Fluc construct was inserted into HindIII and XhoI sites in pcDNA3.1 (+) vector containing the CMV promoter.
HEK293T cells (American Type Culture Collection: ATCC) were cultured at 37° C. under 5% CO2 in Dulbecco's Modified Eagle Medium (DMEM; Thermo Fisher Scientific) supplemented with 10% fetal bovine serum (FBS; Thermo Fisher Scientific), 100 units/ml of penicillin and 100 μg/ml of streptomycin (Thermo Fisher Scientific) and 2 mM GlutaMAX (Thermo Fisher Scientific).
For luciferase assay, HEK 293 cells were plated at 25,000 cells per well on a 96-well flat white microplate (Thermo Fisher Scientific), and were then cultured for 24 hours at 37° C. in 5% CO2. The cells were transfected with cDNAs encoding destabilized Cre along with the luciferase reporter (loxP-stop-loxP Fluc), using X-tremeGENE9 reagent (Merck Millipore) at 37° C. The total amount of DNA was 50 ng per well. Twenty-four hours after the transfection, TMP or DMSO was added into the cells, and the cells were further cultured for 24 hours or 48 hours. Just before the luciferase assay, the medium was replaced with Hanks' balanced salt solution (HBSS) (Thermo Fisher Scientific) containing 0.2 mM D-luciferin potassium salt. Bioluminescence measurement was performed for 1 second per well at room temperature using a Centro XS^3 LB 960 plate-reading luminometer (Berthold Technologies).

Test [2] has as its system loxP-stop-loxP Fluc reporter in mice liver. Description: in vivo Cre-loxP recombination, bioluminescence imaging after HTV injection into mice. Particulars: for DNA recombination activity in vivo in the absence of TMP: HTV injection, DMSO I.P., bioluminescence 24 hours after injection; for TMP-dependent DNA recombination activity in vivo: TMP 167 μg/g body weight I.P. 3 hours after HTV injection. The protocol:
Experiments using mice were performed in accordance with the Guidelines for Care and Use of Laboratory Animals as stated by the University of Tokyo. In all the experiments, four week-old female Slc: ICR mice (Sankyo Labo Service Corporation, Inc.) were used. The mice were […] with cDNAs encoding destabilized Cre along with the luciferase reporter (loxP-stop-loxP Fluc) at 1:9 ratio, using TransIT-EE Hydrodynamic Delivery Solution (Mirus Bio LLC, Madison). The total amount of the DNA injected into a mouse was 10 μg per mouse. The volume of a delivery solution was set at 0.1 mL per mouse weight (g). After the hydrodynamic (HTV) injection of DNA, the mice were bred for 3 hours, and thereafter, TMP (167 μg/g body weight) or DMSO was intraperitoneally (I.P.) injected into the mice. The total volume of the TMP solution injected into a mouse was 100 μL per mouse weight (g). The intraperitoneally injected mice were bred for further 21 hours. The bioluminescence imaging of the mice was performed 24 hours after the HTV injection of DNA. Prior to the bioluminescence imaging, 100 mM D-luciferin was intraperitoneally injected into the mice. The total volume of the injected D-luciferin solution was 10 μL per mouse weight (g). Three minutes after the D-luciferin injection, the bioluminescence images of the mice were obtained using the Lumazone bioluminescence imager (Nippon Roper) equipped with the Evolve EMCCD camera (Photometrics) for 1 minutes. During the intraperitoneal D-luciferin injection and the bioluminescence imaging, the mice were anaesthetized with isoflurane (Abb Vie) to keep them motionless. The obtained data were analyzed with the SlideBook 4.2 software (Intelligent Innovations Inc.).
Next, the usefulness of SPEED-Cre in a living mouse body, namely, in vivo was examined. Using a hydrodynamic tail vain (HTV) injection method (Liu et al., Gene Ther. 6:1258-1266, 1999), mice liver was we transiently transfected with DD-Cre or SPEED-Cre (FIG. 5a). Three hours after the HTV injection, TMP (167 μg/g body weight) or DMSO was intraperitoneally (I.P.) administered into the DD-Cre- or SPEED-Cre-transfected mice (FIG. 5a). The DNA recombination activity was measured using the bioluminescence of a luciferase reporter as an indicator. […] The DNA recombination ability of DD-Cre in vivo was consistent to the ability in in vitro experiments using the human cell line.

B1: split-Cre: Cre split between Ser152 and Asp153 into N-terminal (a.a. 2-152) and C-terminal (a.a. 153-343) self-assembling fragments; SEQ ID No: 8 (protein)
chain: MVSKYPYDVPDYARSGGSGGKLVPKKKRKVGGSNLLTVHQNLPALPVDATSDEVRKNLMDMFRDRQAFSEHTWKMLLSVCRSWAAWCKLNNRKWFPAEPEDVRDYLLYLQARGLAVKTIQQHLGQLNMLHRRSGLPRPSDSNAVSLVMRRIRKENVDAGERAKQALAFERTDFDQVRSLMENSGSGSGATNFSLLKQAGDVEENPGPLEDRCQDIRNLAFLGIAYNTLLRIAEIARIRVKDISRTDGGRMLIHIGRTKTLVSTAGVEKALSLGVTKLVERWISVSGVADDPNNYLFCRVRKNGVAAPSATSQLSTRALEGIFEATHRLIYGAKDDSGQRYLAWSGHSARVGAARDMARAGVSIPEIMQAGGWTNVNIVMNYIRNLDSETGAMVRLLEDGD
modifications: MISC_FEATURE - HAtag; SIGNAL 23..30 Nuclear Localization Signal; MISC_FEATURE - N-terminal of Cre; MISC_FEATURE - P2A; MISC_FEATURE - C-terminal side of Cre; Bacteriophage P1
As for B1, the “recombination efficiency of the self-assembled split fragments” value in test [1] (N-terminal (a.a. 2-152) and C-terminal (a.a. 153-343) fragments expressed via P2A in HEK293 cells, no TMP) was “high recombination efficiency comparable to that of iCre”.

B2: DD-sasCre: sasCre tagged with a single DD sequence on the N terminal side of Cre; SEQ ID No: 9 (protein)
chain: MVSKYPYDVPDYARSGGSGGMISLIAALAVDYVIGMENAMPWNLPADLAWFKRNTLNKPVIMGRHTWESIGRPLPGRKNIILSSQPSTDDRVTWVKSVDEAIAACGDVPEIMVIGGGRVIEQFLPKAQKLYLTHIDAEVEGDTHFPDYEPDDWESVFSEFHDADAQNSHSYCFEILERRGGSGGSGGKLVPKKKRKVGGSNLLTVHQNLPALPVDATSDEVRKNLMDMFRDRQAFSEHTWKMLLSVCRSWAAWCKLNNRKWFPAEPEDVRDYLLYLQARGLAVKTIQQHLGQLNMLHRRSGLPRPSDSNAVSLVMRRIRKENVDAGERAKQALAFERTDFDQVRSLMENSGSGSGATNFSLLKQAGDVEENPGPLEDRCQDIRNLAFLGIAYNTLLRIAEIARIRVKDISRTDGGRMLIHIGRTKTLVSTAGVEKALSLGVTKLVERWISVSGVADDPNNYLFCRVRKNGVAAPSATSQLSTRALEGIFEATHRLIYGAKDDSGQRYLAWSGHSARVGAARDMARAGVSIPEIMQAGGWTNVNIVMNYIRNLDSETGAMVRLLEDGD
modifications: MISC_FEATURE - HAtag; DOMAIN 21..179 Degradation Domain; SIGNAL 190..197 Nuclear Localization Signal; MISC_FEATURE - N-terminal side of Cre; MISC_FEATURE - P2A; MISC_FEATURE - C-terminal side of Cre; Bacteriophage P1
As to B2, in test [1] (HEK293 cells, no TMP), the “background DNA recombination activity (leakage) in the absence of TMP” value (from here on “background DNA recombination activity”) is on record as “significantly lower activity leakage than DD-Cre 1.4”.

B3: SPEED-Cre: split Cre with a DD sequence on each of the N-terminal and C-terminal fragments; SEQ ID No: 10 (protein)
chain: MVSKYPYDVPDYARSGGSGGMISLIAALAVDYVIGMENAMPWNLPADLAWFKRNTLNKPVIMGRHTWESIGRPLPGRKNIILSSQPSTDDRVTWVKSVDEAIAACGDVPEIMVIGGGRVIEQFLPKAQKLYLTHIDAEVEGDTHFPDYEPDDWESVFSEFHDADAQNSHSYCFEILERRGGSGGSGGKLVPKKKRKVGGSNLLTVHQNLPALPVDATSDEVRKNLMDMFRDRQAFSEHTWKMLLSVCRSWAAWCKLNNRKWFPAEPEDVRDYLLYLQARGLAVKTIQQHLGQLNMLHRRSGLPRPSDSNAVSLVMRRIRKENVDAGERAKQALAFERTDFDQVRSLMENSGSGSGATNFSLLKQAGDVEENPGPLEDRCQDIRNLAFLGIAYNTLLRIAEIARIRVKDISRTDGGRMLIHIGRTKTLVSTAGVEKALSLGVTKLVERWISVSGVADDPNNYLFCRVRKNGVAAPSATSQLSTRALEGIFEATHRLIYGAKDDSGQRYLAWSGHSARVGAARDMARAGVSIPEIMQAGGWTNVNIVMNYIRNLDSETGAMVRLLEDGDGGSGGSGGMISLIAALAVDYVIGMENAMPWNLPADLAWFKRNTLNKPVIMGRHTWESIGRPLPGRKNIILSSQPSTDDRVTWVKSVDEAIAACGDVPEIMVIGGGRVIEQFLPKAQKLYLTHIDAEVEGDTHFPDYEPDDWESVFSEFHDADAQNSHSYCFEILERR
modifications: MISC_FEATURE - HAtag; DOMAIN 21..179 Degradation Domain; SIGNAL 190..197 Nuclear Localization Signal; MISC_FEATURE - N-terminal side of Cre; MISC_FEATURE - P2A; MISC_FEATURE - C-terminal side of Cre; DOMAIN 576..734 Degradation Domain; Bacteriophage P1
For B3, in test [2], the “DNA recombination activity in vivo in the absence of TMP” value is listed as “suppressed to low, comparable to a negative control group using the pcDNA3.1 empty vector plasmid” and the “TMP-dependent DNA recombination activity in vivo” value was “high TMP-dependent DNA recombination activity, comparable to the recombination activity of Cre”. In addition, in test [1] (5 ng expression plasmid, 24 or 48 hours (FIG. 4d)), the “TMP-dependent DNA recombination activity (induction)” value is listed as “not less than 10 fold”. The “background DNA recombination activity” value in test [1] (HEK293 cells, no TMP) was “extremely low level that was comparable to the case of using the pcDNA3.1 empty vector plasmid and the reporter plasmid”. In addition, in test [1] (HEK293 cells, plasmid amount varied, no TMP), the “leakage of DNA recombination activity in the absence of TMP as a function of the amount of expression plasmid” value was “maintained a low level”. Besides, the “TMP-dependent DNA recombination activity (induction)” value in test [1] (expression plasmid in various amounts, 24 or 48 hours (FIGS. 4f and g)) is on record as “up to 330 fold”.

B4: DD-Cre: destabilized Cre tagged with one ecDHFR-derived DD sequence; SEQ ID No: 3 (protein)
chain: MVSKYPYDVPDYARSGGSGGMISLIAALAVDYVIGMENAMPWNLPADLAWFKRNTLNKPVIMGRHTWESIGRPLPGRKNIILSSQPSTDDRVTWVKSVDEAIAACGDVPEIMVIGGGRVIEQFLPKAQKLYLTHIDAEVEGDTHFPDYEPDDWESVFSEFHDADAQNSHSYCFEILERRGGSGGSGGKLVPKKKRKVGGSNLLTVHQNLPALPVDATSDEVRKNLMDMFRDRQAFSEHTWKMLLSVCRSWAAWCKLNNRKWFPAEPEDVRDYLLYLQARGLAVKTIQQHLGQLNMLHRRSGLPRPSDSNAVSLVMRRIRKENVDAGERAKQALAFERTDFDQVRSLMENSDRCQDIRNLAFLGIAYNTLLRIAEIARIRVKDISRTDGGRMLIHIGRTKTLVSTAGVEKALSLGVTKLVERWISVSGVADDPNNYLFCRVRKNGVAAPSATSQLSTRALEGIFEATHRLIYGAKDDSGQRYLAWSGHSARVGAARDMARAGVSIPEIMQAGGWTNVNIVMNYIRNLDSETGAMVRLLEDGD
modifications: MISC_FEATURE - HAtag; DOMAIN 21..179 degradation domain; SIGNAL 190..197 Nuclear Localization Signal; Bacteriophage P1
For B4, in test [2], the “DNA recombination activity in vivo in the absence of TMP” value was “high DNA recombination activity at the same level as iCre” and the “TMP-dependent DNA recombination activity in vivo” value is on record as “DNA recombination was not induced”. Also, the “TMP-dependent DNA recombination activity” value in test [1] (HEK293 cells transfected with 5 ng of expression plasmid, TMP treatment) was “does not induce the DNA recombination”. Besides, the “background DNA recombination activity” value in test [1] (HEK293 cells, no TMP) was “almost the same level of the recombination activity of iCre”. For the same molecule, the “recombination activity after reduction of the transfection amount” value in test [1] (transfection amount reduced by one 400th, HEK293 cells) is listed as “remained at almost the same level as that before the reduction of the transfection amount”.

The record behind these values is patent publication US20240409960A1, “METHOD FOR CONTROLLING PROTEIN FUNCTION” (The University of Tokyo, priority 2021, published 2024).
